# Reference: article doi:10.1101/2023.04.04.535563 (bioRxiv, 2023)
# Molecular target: caleosin 2 (CLO2), Cub fusion (A. thaliana, UniProt Q9FLN9 1-243)
# Assay: two-hybrid
# Chain of caleosin 2 (CLO2), Cub fusion (Q9FLN9 whole entry, the tested form may be a part): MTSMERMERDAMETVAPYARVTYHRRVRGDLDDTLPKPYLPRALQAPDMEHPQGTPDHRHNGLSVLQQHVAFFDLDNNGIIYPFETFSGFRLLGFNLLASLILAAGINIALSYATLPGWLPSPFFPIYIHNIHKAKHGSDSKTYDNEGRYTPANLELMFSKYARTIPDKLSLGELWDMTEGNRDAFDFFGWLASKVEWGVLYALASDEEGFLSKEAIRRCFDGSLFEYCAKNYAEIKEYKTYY
binder,measurement,value
"autophagy-related protein 8b (ATG8b), NubG fusion (natural protein, A. thaliana, UniProt Q9XEB5 1-117, looked up) MEKNSFKLSNPLEMRMAESTRIRAKYPERVPVIVEKAGQSDVPDIDKKKYLVPADLTIGQFVYVVRKRIKLGAEKAIFVFVKNTLPPTAALMSAIYEEHKDEDGFLYMTYSGENTFG","fold weaker β-galactosidase activity (against CLO1, CLO3 and OLE1)",2 fold
